From paper PMC3718739 (PLoS ONE, 2013)

Target: ARPC4-His6x (human, UniProt P59998 1-168)
Assay: far-Western, overlay or dot blot
Settings: both partners purified

B1: GST-Rv1626 (natural protein)
chain: MTGPTTDADAAVPRRVLIAEDEALIRMDLAEMLREEGYEIVGEAGDGQEAVELAELHKPDLVIMDVKMPRRDGIDAASEIASKRIAPIVVLTAFSQRDLVERARDAGAMAYLVKPFSISDLIPAIELAVSRFREITALEGEVATLSERLETRKLVERAKGLLQTKHGMTEPDAFKWIQRAAMDRRTTMKRVAEVVLETLGTPKDT
notes: also called Rv1626-pGEX4T3nn; not shown: GST, N-terminal, kept
Does B1 bind?
Result: binds
